Test results published in paper PMC12004354.

Columns and labels:
[1] = target: T1, human recombinant C-reactive protein (human), P02741; experiment: native MS; native capillary zone electrophoresis-MS (nCZE-MS) with surface-induced dissociation (SID); LPA-coated capillary, 20 kV; BGE 50 mM ammonium acetate pH around 6.8 (normal charge) or 40 mM AmAc with 10 mM TEAA (charge-reducing); 0.5 uM of each complex; precursors 15+/11+ SA and 23+/17+ CRP isolated; conditions: remark: other sources report otherwise
T1 chain: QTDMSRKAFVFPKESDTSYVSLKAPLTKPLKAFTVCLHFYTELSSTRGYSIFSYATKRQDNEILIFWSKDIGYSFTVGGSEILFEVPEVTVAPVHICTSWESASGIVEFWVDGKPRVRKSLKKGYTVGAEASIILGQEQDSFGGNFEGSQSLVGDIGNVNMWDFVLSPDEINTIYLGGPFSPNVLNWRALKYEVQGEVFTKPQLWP

[2] = target: T1, human recombinant C-reactive protein …; experiment: native MS; direct infusion native MS with SID; 50 mM ammonium acetate, for charge reduction 20% (v/v) 50 mM TEAA added; conditions: remark: other sources report otherwise

stoichiometry N [1]: 5
stoichiometry N [2]: 5
B1: human recombinant C-reactive protein, P02741 19-224 (natural protein)
chain: QTDMSRKAFVFPKESDTSYVSLKAPLTKPLKAFTVCLHFYTELSSTRGYSIFSYATKRQDNEILIFWSKDIGYSFTVGGSEILFEVPEVTVAPVHICTSWESASGIVEFWVDGKPRVRKSLKKGYTVGAEASIILGQEQDSFGGNFEGSQSLVGDIGNVNMWDFVLSPDEINTIYLGGPFSPNVLNWRALKYEVQGEVFTKPQLWP
